Reference: the DeepSol protein solubility set

Test: soluble on expression in E. coli; label from the status in PepcDB or PDB records

Soluble on expression in E. coli, not soluble:
MQSAKPLFDYPKYWAECFGPAPFLPMSREEMDLLGWDSCDIIIVTGDAYVDHPSFGMAIIGRLLESQGFRVGIIAQPNWQSKDDFMKLGEPNLFFGVAAGNMDSMINRYTADKKIRSDDAYTPGGMAGKRPDRASLVYSQRCKEAYKHVPIVLGGIEASLRRIAHYDYWQDKVRNSILIDACADILLYGNAERAIVEVAQRLSYGHKIEDITDVRGTAFIRRDTPQGWYEVDSTRIDRPGKVDKIINPYVNTQDTQACAIEQEKGNVEDPNEAKVVQILASPRMTRDKTVIRLPSVEKVRNDAVLYAHANRVLHLETNPGNARALVQKHGEVDVWFNPPPIPMTTDEMDYVFGMPYARVPHPAYGKEKIPAYDMIRFS, MQSLIGLMRPETGKKLENLNHFIQQFEKVLIAFSGGVDSSTLAAVCSNAGVEVLAVTVLSSVSPRREMEEAKRIAEELGVRHEFLKIDLMDEDFRRNDENRCYYCKRRVLSALVEEAKKRGIEVVLEGTNASDLSDHRPGYRAVRELDGVNSPWVEFGITKEEIREIARSMGYSFHDKPSMACLASRIPFGIEIDEEKLKMVDEAEEAVIELAGVKQVRVRNYDGVAVVEVAGDELRKLLNCAEKVRDKLKKIGFRAVLIDLEGYRSGKRLFKF, MQSTFRRSTLAALRGFALPSDAISIVPSAADYRRCLLEKIASATRRIYIIALYLQQDEAGQEILDALYAAKAARPELDVVVLVDWFRAQRGLIGAGRQPGNSTWYQAQNLEYDEEVPIYGVPVQTRELFGVLHLKGSVIDDCVIYSGASINNVYLHKLDKYRLDRYHLIESAPLADSFEHLVQREILPSAAVHRLDLQSPPSSRSLRSEIRAFRSDLKRATYDTSAGDKENGQLRVIPLLGVGPRNSLNRAICDLIASSKIQLTICTPYFNLPVAVTREVNRALKRGVKVDIIIGDKTANDFFIDPDEPFKVISALPYLYEISLRRFAHKHQKAIAQQRLNVHLWKHGDNTFHLKGIWVDQRYTLLTGNNLNPRAFNLDLENGLLIDDPQGQWTDPREAEIAQLMRNTQRVNQYDELDTLANYPEGVRKFLKRVSRVRVERLLYRILLEHHHHHH, MQTGRQQNKGTIFASLNMSRKNRHNVLPRATMLRKKAIQIRLNEAEHKAVETYCSRFKVENRSRWIRETLMKEVIHRLESDTPLLFREEEMR, MQTSFCVLVSIIERMPTWNDIKVRNPQHSHNYAKRWENLEAEGNDINGEARLIDALVQRGSKILDAGCGQGRVGGYLSARGHIVTGIDIDDYLISEAEKKFPSATWHVGDLGSESIPDQGFDIAVCAGNVITFIEPDKQEAALAHIFEALRPNGRCIIGFGAGRGYVFPQFFEDARNVGFVIENNFESWGLNPLTNRSQFLVAFLRKPELEHHHHHH, MQTVIGTTNGRPGTTYYQRGRMHRHQPGNRQQKEKKAAAGRNRNDFLTGRILPVTPDYCMEIRAGEKINLTTRENFDFLYRSALRYSALVGLRLPFRPTGKSPRMNIVKLYRAMDTILPEHVNLEEENGRLYFCLYRFHEWPEYKLFWIPLEFTERLPEKLGKIALEFIRQLARHHGIPKSTDTSYHEMAHDYLEDYRLYDEEATAGEIRRKAALARLYEKGKAHRILKRMDNPKGFLADLEGEIRKYHTKKNNERALLELLTEGTAYISYGSPSIMQYSYDWAYEKAADFRPVGLDTQIMVTWSVKDAMNDEMESYFNSDYQESYVITPVTTFHLTPDTEKPFSMDDFPERFSHWLERFTKLITNNF, MQTYIETSRLILRDWKEEDIPAFARMNADPHVMEFFLHPLTPEESLAFYHRIQNEFQTCGFGLYAVERKEDHAFMGYTGLHQITFDVDFAPGIEIGWRLAHEYWGRGYAPEAATACLEYARKSLDIKELFSFTSLPNQRSERVMQKIGMERVREFGHPLVPAEHPLHRHVLYYIDLRKHSS, MQVELIIKNLKVYNSYFKKFIKSDVLINEGKFLHIGKGYEDRLWSENIIDGEDKYIIPGLIDIHMHIESSMTIPREFSKAAIKHGVTTVVADPHEIANVFGVRGIEEFIKFKGNLDIFYGILEHHHHHH, MQYIKIHALDNVAVALADLAEGTEVSVDNQTVTLRQDVARGHKFALTDIAKGANVIKYGLPIGYALADIAAGEHVHAHNTRTNLSDLDQYRYQPDFQDLPAQAADREVQIYRRANGDVGVRNELWILPTVGCVNGIARQIQNRFLKETNNAEGTDGVFLFSHTYGCSQLGDDHINTRTMLQNMVRHPNAGAVLVIGLGCENNQVAAFRETLGDIDPERVHFMICQQQDDEIEAGIAHLHQLYSVMRNDKREPGKLSELKFGLECGGSDGLSGITANPMLGRFSDYVIANGGTTVLTEVPEMFGAEQLLMDHCRDEATFEKLVTMVNDFKQYFIAHDQPIYENPSPGNKAGGITTLEDKSLGCTQKAGSSVVVDVLRYGERLKTPGLNLLSAPGNDAVATSALAGAGCHMVLFSTGRGTPYGGFVPTVKIATNSELAAKKKHWIDFDAGQLIHGKAMPQLLEEFIDTIVEFANGKQTCNERNDFRELAIFKSGVTL, MRAEFVNPFLASLMNVLKTMASLELKPQKPRIKKDEIARGDVSGLIGMIGPTTRGSMSITFDESLALEIMQNMLGERPNGLNEEVTDMVGEITNMVTGGAKRILAESGFDFDMATPVVVSGRGHTIRHKCEGAIILMPFSSPWGNAFIEICFE, MRATVSGKTTTILPLLSKLIVIVIKSTSIHCSTLTSSGLFDSTAPRVFKNLVNYGGDMWFYMKPYPSNGKSGSQQMENVYQGLKSAQIKFSHITQHGISVQFFTSQSNWHSITNNNRSFSSYKLWWAHTNGAGNGGATSPNFEGFVSFGGWTSSSLVGKEYARQVQECGVTVNKYVYVK, MRDEDFCCAVCLDFFVEPCIIECGHSYCRFCIESHLNINEKCPLCRAHTGNPIRNRQLESLTMSYVSSRNISTEYYERMKSYQKKLLLQNRALVIIWTELNKRPGHSTELCNLVRNVQDEELKSEIMWQVKQQVGVGLEHTGDLQEENVTIRLKNSSSQQ, MRDPNKWAEVKKTLPLVGAGRSGGRFRHPSARGKLTVQYVNRVRHYYDLLVRLSEKKRSGPSGRGLEHHHHHH

Soluble on expression in E. coli, soluble:
MQTFGSRGEKRTFEMLTNEVEYQHYRFSFANNPATAAGIFQLAEIELTVVADAPLVDFASNISRAEIGENVQFWDRSLANPTGWQWTFEDGEPATSTNRNPAVTFTSLGAKSVTLVASNDKGSNEKVQEQVVHIWDSQNPWAGYVKPTVTLVAHKPEHEGQIAFSRVMPDIEAVIHDISLQIVKVLYKDVAEAPLFKTVTFETDEYDFPAAKSGTDEDMILMMDVAHLANKAAEGDDALRDEVIGMLWHELTHGYNNSPNSGEYATGDEYHSYLESLANYMRIKAGFHESRRVGIKWVDNWNVDAYEQTSFFLEWVANSHRSVDFIYLFNKAAGDLKEWSFEAAFKSIFGEDKGVSIFWQEYHDAQGIEPPYPTPVDGYRNFAVDEGVSISTNATTVIIPDWDAYEGEDKLIDNNVTKKFNAFIEGTWWLEEHASHLFPINDITNVEVTFELPDAIVLHKYSVTTGNDNPQRDPTLWTISGSVDGEVWTQLDSDNYPSDPERLITFHYDIDDAVTAYKYYQFVFENTQPAGDSIGGDNGRLVQIGEIALLTEELEHHHHHH, MQYFDVARILTTHGLHGEVKVNVITDFPEDRFAEGMQLELKDDIDRVLTIKKSRPFKQFWLLQFDEITDIDEAEKLRGKILVISEKDRGELPDGVYYYKDIFDCGVIDNETGKRLGKITDIQSPGANDIWLVHEDNGKEYWIPNIADVVKKIDIADKKVYVELMEGLRDEDLEHHHHHH, MRADVKPVTVKLVDSQATMETRSLFAFMQEQRRHSIMFGHQHETTQGLTITRTDGTQSDTFNAVGDFAAVYGWDTLSIVAPKAEGDIVAQVKKAYARGGIITVSSHFDNPKTDTQKGVWPVGTSWDQTPAVVDSLPGGAYNPVLNGYLDQVAEWANNLKDEQGRLIPVIFRLYHENTGSWFWWGDKQSTPEQYKQLFRYSVEYLRDVKGVRNFLYAYSPNNFWDVTEANYLERYPGDEWVDVLGFDTYGPVADNADWFRNVVANAALVARMAEARGKIPVISGIGIRAPDIEAGLYDNQWYRKLISGLKADPDAREIAFLLVWRNAPQGVPGPNGTQVPHYWVPANRPENINNGTLEDFQAFYADEFTAFNRDIEQVYQRPTLIVK, MRAHTLSRQLREGNLFAEQCPSREVLKHVTSRWGVLILVALRDGTHRFSDLRRKMGGVSEKMLAQSLQALEQDGFLNRVSYPVVPPHVEYSLTPLGEQVSDKVAALADWIELNLPQVLAQRERLSDGG, MRAIGLLEFKEITRGVYAADVMLKATPVELLLIDNICPGKLIVLIEGEVSAVKNAISRGKEVFSEGVIEEVVLTNPHPSLSTVFPRKKQSKKLNYNSIGIIETLSVSSAIKAADKAAKGANVEIIDIKIARFLGGKAIVVLGGEISAVKVAIDAGISAVQKGKLVSSTVVANINEKLLEMWV, MRALRLVTSESVTEGHPDKLADRISDAILDALIAQDKKARVAAETLVTTGLVFVAGEITTEGYVDIPNLVRKTVREVGYTRAKYGFDADTCAVLTAIDEQSPDIAGGVNLSYEWRVLKSTDPLDRVGAGDQGLMFGYATDETPELMPLPITLAHRLTMRLAEVRKTGLLPYLRPDGKAQVTVVYEGDKPLYVKTVVVSAQHSPEVEQEQLREDLIREVVRQAIPPEYLKDGETEYLINPSGRFILGGPHADTGLTGRKIIVDTYGGAVPHGGGAFSGKDPTKVDRSASYYARYMAKNIVAAGLARRALVELAYAIGKARPVSLRVETFGTGVLPDEKLTEIAKKVFDPRPLAIIEELDLLRPIYTPTSAYGHFGRPGFPWEETDRVEALRREAGL, MRAPEESLREVLARFPQVQAAFLFGSRAEGRARADSDWDLALLLSPEEPDPTLEVLGALVEAGLERVDLVLLHRAPPLLAFLAVKGKPVFLREGFDLGSYVSRVAREWWDTEPLLRVQREALTLKRRWLDPS, MRASEVLQKCLPNSLSGMHALRERALLHAVEALLHGRRLTLMDIARSWPSALRVRAPLKAVDRLLSNRNLQVERSVIDHEMAHWLLRGAQPVIVIDWSDLKPDKSWCLLRAAVPVGGRTLTLLDMVVPGKQQGLEHHHHHH, MRAVVVGAGLGGLLAGAFLARNGHEIIVLEKSAMIGGRFTNLPYKGFQLSTGALHMIPHGEDGPLAHLLRILGAKVEIVNSNPKGKILWEGKIFHYRESWKFLSVKEKAKALKLLAEIRMNKLPKEEIPADEWIKEKIGENEFLLSVLESFAGWADSVSLSDLTALELAKEIRAALRWGGPGLIRGGCKAVIDELERIIMENKGKILTRKEVVEINIEEKKVYTRDNEEYSFDVAISNVGVRETVKLIGRDYFDRDYLKQVDSIEPSEGIKFNLAVPGEPRIGNTIVFTPGLMINGFNEPSALDKSLAREGYTLIMAHMALKNGNVKKAIEKGWEELLEIFPEGEPLLAQVYRDGNPVNRTRAGLHIEWPLNEVLVVGDGYRPPGGIEVDGIALGVMKALEKLNLGSFSEWYLLEHHHHHH, MRCLALDIGGTKIAAAIVKNGEIEQRQQIHTPRENVVEGMHQALGKLLADYEGQFDYVAVASTGIINNGILSALNPKNLGGLAEFPLKASIAKHTDKPIGLLNDAQAATYAEYQLQNSEQVSNFVFITVSTGVGGGIVLNQILQTGSRGIAGHIGHTLADPNGAICGCGRRGCVEAIASGRAIEAVSSQWEEPCDPKEVFERFRKNDEKATALVERSAKAIANLIADLVISLDIQKIAIGGSVGLAEGYLSLVEKYLQDFPSIYCCEIETAKFGQDAGLIGAAYWVKDVLLDKPEGTIYGLEHHHHHH
